Starred links: 1 amine or outer side, 2 acyl side, 3 side chain; linkers in the order of their positions; H or OH if unused. Positions of bridges follow the written chain, without caps; N, C: chain ends. Non-standard residues stand in square brackets, D forms with d. Primed or numbered codes have the meaning given here. *: point of attachment. PyrS2″ = (S)-3-amino-1-((pent-4-en-1-yloxy)carbonyl)pyrrolidine-3-carboxylic acid (stapling residue), C=CCCCOC(=O)N1CC[C@@](N[*:1])(C(=O)[*:2])C1; Tf = trifluoromethylsulfonyl on Dap side-chain N ([Tf]Dap = (S)-2-amino-3-((trifluoromethyl)sulfonamido)propanoic acid), O=S(=O)(C(F)(F)F)*; B5(16) = 2-amino-2-(pent-4-en-1-yl)hept-6-enoic acid = 2,2-bis(4-pentenyl)glycine (stitching residue), C=CCCCC(CCCC=C)(N[*:1])C(=O)[*:2]; B5(4) = 2,2-bis(4-pentenyl)glycine = 2-amino-2-(pent-4-en-1-yl)hept-6-enoic acid (stitching residue), C=CCCCC(CCCC=C)(N[*:1])C(=O)[*:2]; B5(5) = 2,2-bis(4-pentenyl)glycine, 2-amino-2-(pent-4-en-1-yl)hept-6-enoic acid (stitching residue), C=CCCCC(CCCC=C)(N[*:1])C(=O)[*:2]; PyrS2 = (S)-3-amino-1-((pent-4-en-1-yloxy)carbonyl)pyrrolidine-3-carboxylic acid, C=CCCCOC(=O)N1CC[C@@](N[*:1])(C(=O)[*:2])C1; B5(3) = 2,2-bis(4-pentenyl)glycine (stitching residue), C=CCCCC(CCCC=C)(N[*:1])C(=O)[*:2]; B5 = 2-amino-2-(pent-4-en-1-yl)hept-6-enoic acid, C=CCCCC(CCCC=C)(N[*:1])C(=O)[*:2]; Ala(1H-tetrazol-5-yl) = N[C@@H](Cc1nnn[nH]1)C(=O)O; Trp(6-Cl) = N[C@@H](Cc1c[nH]c2cc(Cl)ccc12)C(=O)O; Phe(2-Cl) = N[C@@H](Cc1ccccc1Cl)C(=O)O; Phe(3-F) = N[C@@H](Cc1cccc(F)c1)C(=O)O; 1Nal = N[C@@H](Cc1cccc2ccccc12)C(=O)O; Bta = N[C@@H](Cc1csc2ccccc12)C(=O)O; αAllylPro = C=CC[C@@]1(C(=O)O)CCCN1; tBuAla = CC(C)(C)C[C@H](N)C(=O)O; 2Thi = N[C@@H](Cc1cccs1)C(=O)O; 3Thi = N[C@@H](Cc1ccsc1)C(=O)O; Cha = N[C@@H](CC1CCCCC1)C(=O)O; Cit = NC(=O)NCCC[C@H](N)C(=O)O; S8 = C=CCCCCCC[C@](C)(N)C(=O)O; Dap = NC[C@H](N)C(=O)O
B1: I-629 (peptide)
peptide: Ac-[αAllylPro]DL[B5(16)]DEAAF[Cit][S8]F[Bta]-NH2
modifications: staple 1-4, 4-11; not fully specified; printed as Ac-PL3-Asp-Leu-B5-Asp-Glu-Ala-Ala-Phe-Cit-S8-Phe-BztA-NH2

molecular target: full-length beta-Catenin (Uniprot ID P35222) (Homo sapiens (Human)) (UniProt P35222); test: fluorescence polarization competition; full-length beta-catenin, competitor 5FAM-TCF4 10-53

IC50 | Binder
5000 nM | Ac-[αAllylPro][Dap](Tf)I[B5(4)]DEAAFQ[S8]F[Bta]Q-NH2 (staple 1-4, 4-11) [I-632]
36 nM | B1
5000 nM | Ac-[αAllylPro]DI[B5(4)][Dap](Tf)EAAFQ[S8]F[Bta]Q-NH2 (staple 1-4, 4-11) [I-631]
52 nM | Ac-[αAllylPro]D[tBuAla][B5(5)]DNAAFS[PyrS2″][Phe(2-Cl)][Bta]S-NH2 (staple 1-4, 4-11) [I-1020]
5000 nM | Ac-[αAllylPro]D[Cha][B5(4)]DEAAFN[S8]F[Bta]-NH2 (staple 1-4, 4-11; also: earlier-eluting staple isomer) [I-626]
60 nM | Ac-[αAllylPro]DL[B5(4)]DEAAF[Cit][S8]F[Bta]-NH2 (staple 1-4, 4-11) [I-628]
338 nM | Ac-[αAllylPro]D[Cha][B5(4)]DEAAFN[S8]F[Bta]-NH2 (staple 1-4, 4-11) [I-627]
5000 nM | Ac-[αAllylPro]DI[B5(4)][Dap](Tf)EAAFQ[S8]F[Bta]Q-NH2 (staple 1-4, 4-11) [I-630]

molecular target: full-length beta-Catenin (Uniprot ID P35222) (Homo sapiens (Human)) (UniProt P35222); test: fluorescence polarization competition; displaces 5FAM-TCF4(10-53) from full-length beta-catenin
Target sequence in this assay (P35222 2-781 limits assumed): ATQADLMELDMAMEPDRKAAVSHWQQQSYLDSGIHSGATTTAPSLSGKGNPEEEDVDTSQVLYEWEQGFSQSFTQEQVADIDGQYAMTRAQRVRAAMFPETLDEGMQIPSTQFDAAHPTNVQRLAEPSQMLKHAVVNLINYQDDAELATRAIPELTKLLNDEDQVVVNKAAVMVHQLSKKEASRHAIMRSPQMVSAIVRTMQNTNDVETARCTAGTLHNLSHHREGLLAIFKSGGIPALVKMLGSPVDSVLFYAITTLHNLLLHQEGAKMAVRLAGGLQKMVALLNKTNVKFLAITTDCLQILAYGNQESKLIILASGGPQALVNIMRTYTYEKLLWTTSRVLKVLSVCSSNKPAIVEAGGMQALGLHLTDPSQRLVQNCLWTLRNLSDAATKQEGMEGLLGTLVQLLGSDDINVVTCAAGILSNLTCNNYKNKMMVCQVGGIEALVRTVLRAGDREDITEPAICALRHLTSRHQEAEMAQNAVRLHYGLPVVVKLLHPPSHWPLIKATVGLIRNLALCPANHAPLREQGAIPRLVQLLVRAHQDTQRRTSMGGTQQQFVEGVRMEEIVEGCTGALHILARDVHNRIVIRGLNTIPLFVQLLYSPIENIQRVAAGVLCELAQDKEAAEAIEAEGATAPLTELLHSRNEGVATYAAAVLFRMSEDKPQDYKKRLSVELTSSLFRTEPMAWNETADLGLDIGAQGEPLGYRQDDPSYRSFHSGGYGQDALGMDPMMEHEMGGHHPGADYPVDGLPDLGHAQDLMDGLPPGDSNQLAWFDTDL

EC50 | Binder
52 nM | Ac-[αAllylPro]D[tBuAla][B5(5)]DNAAFS[PyrS2″][Phe(2-Cl)][Bta]S-NH2 (staple 1-4, 4-11) [I-1020]

molecular target: full-length beta-Catenin (Uniprot ID P35222) (Homo sapiens (Human)) (UniProt P35222); test: fluorescence polarization competition; peptide titrated against 10 nM full-length beta-catenin + 10 nM 5FAM-TCF4(10-53) probe
Target sequence in this assay (P35222 whole entry): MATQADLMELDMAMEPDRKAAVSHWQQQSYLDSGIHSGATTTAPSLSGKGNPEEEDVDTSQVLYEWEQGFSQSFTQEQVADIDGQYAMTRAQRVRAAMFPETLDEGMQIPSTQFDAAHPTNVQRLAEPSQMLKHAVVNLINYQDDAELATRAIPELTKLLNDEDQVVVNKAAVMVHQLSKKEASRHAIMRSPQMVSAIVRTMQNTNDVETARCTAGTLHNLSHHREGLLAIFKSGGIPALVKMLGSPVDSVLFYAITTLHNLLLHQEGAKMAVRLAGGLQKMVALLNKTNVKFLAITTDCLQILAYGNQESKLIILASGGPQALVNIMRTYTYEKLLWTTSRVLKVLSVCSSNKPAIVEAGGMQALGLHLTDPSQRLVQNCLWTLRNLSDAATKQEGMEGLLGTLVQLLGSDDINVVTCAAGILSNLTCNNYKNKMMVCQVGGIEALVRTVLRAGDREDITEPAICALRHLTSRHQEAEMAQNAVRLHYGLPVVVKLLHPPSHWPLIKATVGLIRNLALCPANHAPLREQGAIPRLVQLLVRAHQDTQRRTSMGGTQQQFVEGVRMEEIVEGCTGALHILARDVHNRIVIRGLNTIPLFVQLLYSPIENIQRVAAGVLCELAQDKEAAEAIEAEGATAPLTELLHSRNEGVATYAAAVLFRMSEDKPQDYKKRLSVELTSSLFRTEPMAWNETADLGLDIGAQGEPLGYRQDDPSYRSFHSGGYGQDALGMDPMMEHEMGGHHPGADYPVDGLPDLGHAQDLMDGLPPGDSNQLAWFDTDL

IC50 | EC50 | Binder
90 nM | – | Ac-[αAllylPro]DA[B5(3)]D[Ala(1H-tetrazol-5-yl)]AAFQ[S8]F[Bta]Q-NH2 (staple 1-4, 4-11) [I-413]
– | 5000 nM | Ac-[αAllylPro][Dap](Tf)I[B5(4)]DEAAFQ[S8]F[Bta]Q-NH2 (staple 1-4, 4-11) [I-632]
– | 685 nM | B1
– | 5000 nM | Ac-[αAllylPro]DI[B5(4)][Dap](Tf)EAAFQ[S8]F[Bta]Q-NH2 (staple 1-4, 4-11) [I-631]
– | 5000 nM | Ac-[αAllylPro]D[Cha][B5(4)]DEAAFN[S8]F[Bta]-NH2 (staple 1-4, 4-11; also: earlier-eluting staple isomer) [I-626]
– | 713 nM | Ac-[αAllylPro]DL[B5(4)]DEAAF[Cit][S8]F[Bta]-NH2 (staple 1-4, 4-11) [I-628]
– | 338 nM | Ac-[αAllylPro]D[Cha][B5(4)]DEAAFN[S8]F[Bta]-NH2 (staple 1-4, 4-11) [I-627]
5000 nM | – | Ac-[αAllylPro][Ala(1H-tetrazol-5-yl)]A[B5(3)]DEAAFQ[S8]F[Bta]Q-NH2 (staple 1-4, 4-11; also: staple isomer composition, later eluting HPLC peak) [I-417]
– | 5000 nM | Ac-[αAllylPro]DI[B5(4)][Dap](Tf)EAAFQ[S8]F[Bta]Q-NH2 (staple 1-4, 4-11) [I-630]
5000 nM | – | Ac-[αAllylPro][Ala(1H-tetrazol-5-yl)]A[B5(3)]DEAAFQ[S8]F[Bta]Q-NH2 (staple 1-4, 4-11; also: staple isomer composition, earlier eluting HPLC peak) [I-416]
92 nM | – | Ac-[αAllylPro]DI[B5(3)]DEAA[2Thi]Q[S8][Phe(3-F)][Bta]Q-NH2 (staple 1-4, 4-11) [I-412]

molecular target: full-length beta-Catenin (Uniprot ID P35222) (Homo sapiens (Human)) (UniProt P35222); test: fluorescence polarization competition; 10 nM full-length beta-catenin with 10 nM 5FAM-TCF4(10-53) probe as competitor
Target sequence in this assay (P35222 2-781 limits assumed): as the sequence (P35222 2-781 limits assumed) above

IC50 | Binder
19 nM | Ac-[αAllylPro]D[tBuAla][B5]DDAAFN[PyrS2][1Nal][Bta]H-NH2 (staple 1-4, 4-11) [I-794]
106 nM | Ac-[αAllylPro]D[tBuAla][B5]DDAAFN[PyrS2][3Thi][Trp(6-Cl)]H-NH2 (staple 1-4, 4-11) [I-798]
5 nM | Ac-[αAllylPro]D[tBuAla][B5(4)]DDAAF[Cit][PyrS2″][3Thi][Bta]Q-NH2 (staple 1-4, 4-11) [I-805]
5 nM | Ac-[αAllylPro]D[tBuAla][B5(4)]DDAAF[Cit][PyrS2″][3Thi][Bta]H-NH2 (staple 1-4, 4-11) [I-806]

molecular target: full-length beta-Catenin (Uniprot ID P35222) (Homo sapiens (Human)) (UniProt P35222); test: fluorescence polarization competition: peptide titrated against 10 nM full-length beta-catenin + 10 nM 5FAM-TCF4(10-53) probe
Target sequence in this assay (P35222 2-781 limits assumed): as above

EC50 | Binder
19 nM | Ac-[αAllylPro]D[tBuAla][B5]DDAAFN[PyrS2][1Nal][Bta]H-NH2 (staple 1-4, 4-11) [I-794]
106 nM | Ac-[αAllylPro]D[tBuAla][B5]DDAAFN[PyrS2][3Thi][Trp(6-Cl)]H-NH2 (staple 1-4, 4-11) [I-798]
5 nM | Ac-[αAllylPro]D[tBuAla][B5(4)]DDAAF[Cit][PyrS2″][3Thi][Bta]Q-NH2 (staple 1-4, 4-11) [I-805]
5 nM | Ac-[αAllylPro]D[tBuAla][B5(4)]DDAAF[Cit][PyrS2″][3Thi][Bta]H-NH2 (staple 1-4, 4-11) [I-806]

molecular target: full-length beta-Catenin (Uniprot ID P35222) (Homo sapiens (Human)) (UniProt P35222); test: fluorescence polarization competition; 10 nM full-length beta-catenin + 10 nM 5FAM-TCF4(10-53) probe, peptide titrated
Target sequence in this assay (P35222 2-781 limits assumed): as above

EC50 | Binder
90 nM | Ac-[αAllylPro]DA[B5(3)]D[Ala(1H-tetrazol-5-yl)]AAFQ[S8]F[Bta]Q-NH2 (staple 1-4, 4-11) [I-413]
5000 nM | Ac-[αAllylPro][Ala(1H-tetrazol-5-yl)]A[B5(3)]DEAAFQ[S8]F[Bta]Q-NH2 (staple 1-4, 4-11; also: staple isomer composition, later eluting HPLC peak) [I-417]
5000 nM | Ac-[αAllylPro][Ala(1H-tetrazol-5-yl)]A[B5(3)]DEAAFQ[S8]F[Bta]Q-NH2 (staple 1-4, 4-11; also: staple isomer composition, earlier eluting HPLC peak) [I-416]
92 nM | Ac-[αAllylPro]DI[B5(3)]DEAA[2Thi]Q[S8][Phe(3-F)][Bta]Q-NH2 (staple 1-4, 4-11) [I-412]

— US20240116985A1, “STAPLED PEPTIDES AND METHODS THEREOF” (priority 2020, published 2024)
